Measured values as given in US20220227864A1 (AVA LIFESCIENCE, published 2022).

Columns and labels:
[1] = target: T1, CLL subset 2 typical BCR on TKO cells (FIG. 1B); experiment: FACS binding assay on TKO cells, fluorescently labeled anti-mouse IgG
T1 construct: The light chain is the VL3-21 variant and carries R110; also called CLL subset 2 BCR; BCR of interest
Excerpt: (§1) For the screening procedure, different vectors for the following heavy chain (HC) and light chain (LC) combinations of the corresponding CLL-BCRs were used in the previous transformation, and these combinations were used on the surface of the BCR reconstitution system: [0080] Control (transformation vector without BCR) (see FIG. 1A). [0081] Vector with HC/LC (VL3-21) typical of CLL subset 2 (see FIG. 1B). [0082] Vector with a non-CLL subset 2 HC/LC typical for CLL subset 2 (VL3-21; without target motif R110G) (see FIG. 1C) [0083] Vector with a HC typical for CLL subset 2/a non-CLL subset 2 LC (see FIG. 1D) [0084] Vector with a non-CLL subset 2 HC/a non-CLL subset 2 LC (see FIG. 1E) [0085] Vector with HC/LC typical for CLL subset 2 (VL3-21; including mutation R110G (target motif)) (see FIG. 1F).
(§2) In the first round of selection, supernatants from multiple clones were combined and examined with respect to their binding profile to the selection matrix. A positive binding profile is given if a specific binding to the “BCR-of-Interest” is shown. Groups showing such a profile were singulated, and the binding profile of each clone was characterized again on the selection matrix in a second round of selection. Binding of the monoclonal antibodies was verified using a FACS binding assay with a fluorescently labeled anti-mouse IgG antibody. […]

[2] = target: T1, CLL subset 2 typical BCR on TKO cells …; experiment: FACS on TKO cells expressing the BCR, hybridoma supernatant
Excerpt: as §1, §2

T1 sequence (heavy, as listed by the source, chain 1 of 2): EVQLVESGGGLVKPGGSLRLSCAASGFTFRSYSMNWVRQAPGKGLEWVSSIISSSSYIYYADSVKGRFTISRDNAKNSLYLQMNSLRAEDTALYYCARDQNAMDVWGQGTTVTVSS
T1 sequence (light, as listed by the source, chain 2 of 2): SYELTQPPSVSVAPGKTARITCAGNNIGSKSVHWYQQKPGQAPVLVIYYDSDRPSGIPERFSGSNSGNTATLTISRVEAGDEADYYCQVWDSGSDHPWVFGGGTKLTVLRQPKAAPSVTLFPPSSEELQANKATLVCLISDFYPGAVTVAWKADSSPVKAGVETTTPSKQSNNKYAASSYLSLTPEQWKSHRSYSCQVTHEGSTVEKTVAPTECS

| binding result [1] | binding result [2] | Binder |
| --- | --- | --- |
| binds |  | AVA-mAb01 (antibody, V domains shown, Murine monoclonal antibody from a hybridoma, detected with anti-mouse IgG; also called specific monoclonal antibody against subset-2; the selected antibody) VH: QVQLQQSGPGLVQPSQSLSITCTVSGFSLTSYGIHWVRQSPGKGLEWLGVIWRGGGTDSNAAFMSRLSITKDNSKSQVFFKMNSLQADDTAIYYCARSRYDEEESMNYWGQGTSVTVSS VL: QIVLTQSPASLSASVGETVTITCRASGNIHSYLAWYQQKQGKSPQLLVYNAKTLADGVPSRFSGSGSGTQYSLKINSLQPEDFGSYYCQHFWNTPPTFGAGTKLELK |
|  | binds | AVA-mAb02 (antibody, V domains shown, Murine monoclonal antibody; Tested as hybridoma supernatant and detected with anti-mouse IgG; also called VL3-21 specific antibody) VH: QVQLQQPGAELVRPGVSVKISCKGSGYTFTDYAIHWVKQSHAKSLEWIGVISTYYGDSNYNQKFKGKATMTVNKSSSTAYMELARLTSDDSAIYYCSRDTSNFDYWGQGTTLTVSS VL: DIQMTQSPSSMYASLGERVTITCKASQDINSHLTWFQQKPGKSPKTLIYRANRLVDGVPSRFSGSGSGQDYSLTISSLEYEDMGIYYCLQYDEFPRTFGGGTKLEIK |
